Biological target: GST-Nup2p (S. cerevisiae, UniProt P32499 1-720)
Test: pull-down

Chain of GST-Nup2p (P32499 whole entry): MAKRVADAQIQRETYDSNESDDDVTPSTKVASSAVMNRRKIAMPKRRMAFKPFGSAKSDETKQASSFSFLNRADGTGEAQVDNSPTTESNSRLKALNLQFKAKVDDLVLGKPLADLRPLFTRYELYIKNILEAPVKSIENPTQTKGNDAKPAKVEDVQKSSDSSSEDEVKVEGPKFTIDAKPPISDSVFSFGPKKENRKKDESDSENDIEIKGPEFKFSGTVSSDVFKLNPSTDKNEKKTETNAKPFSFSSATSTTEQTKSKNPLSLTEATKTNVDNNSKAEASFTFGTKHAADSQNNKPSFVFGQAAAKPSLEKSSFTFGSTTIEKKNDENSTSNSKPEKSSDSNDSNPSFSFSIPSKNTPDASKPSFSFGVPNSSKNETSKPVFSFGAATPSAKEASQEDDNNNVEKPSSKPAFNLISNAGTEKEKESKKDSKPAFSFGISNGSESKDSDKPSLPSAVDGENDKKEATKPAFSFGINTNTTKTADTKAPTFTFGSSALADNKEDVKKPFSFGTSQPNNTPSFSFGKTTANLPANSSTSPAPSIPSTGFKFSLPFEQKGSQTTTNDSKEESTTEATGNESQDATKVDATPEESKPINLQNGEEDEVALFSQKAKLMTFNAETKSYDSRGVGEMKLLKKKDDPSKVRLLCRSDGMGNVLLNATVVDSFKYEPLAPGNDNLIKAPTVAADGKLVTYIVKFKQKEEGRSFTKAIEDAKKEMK

B1: Bacterially expressed and purified Prp20p (natural protein)
chain: MVKRTVATNGDASGAHRAKKMSKTHASHIINAQEDYKHMYLSVQPLDIFCWGTGSMCELGLGPLAKNKEVKRPRLNPFLPRDEAKIISFAVGGMHTLALDEESNVWSWGCNDVGALGRDTSNAKEQLKDMDADDSSDDEDGDLNELESTPAKIPRESFPPLAEGHKVVQLAATDNMSCALFSNGEVYAWGTFRCNEGILGFYQDKIKIQKTPWKVPTFSKYNIVQLAPGKDHILFLDEEGMVFAWGNGQQNQLGRKVMERFRLKTLDPRPFGLRHVKYIASGENHCFALTKDNKLVSWGLNQFGQCGVSEDVEDGALVTKPKRLALPDNVVIRSIAAGEHHSLILSQDGDLYSCGRLDMFEVGIPKDNLPEYTYKDVHGKARAVPLPTKLNNVPKFKSVAAGSHHSVAVAQNGIAYSWGFGETYAVGLGPFEDDTEVPTRIKNTATQDHNIILVGCGGQFSVSGGVKLSDEDAEKRADEMDD
binding result: binds
